From patent US20220088148A1 (HANMI PHARM, published 2022)
Bridges are numbered along the chain shown (N, C = ends). Where no end group is shown, it is not given here. [ ]: non-standard residue; d: D form. The star is where a group is joined. Acetyl(2-(4-imidazolyl)) = O=C(Cc1c[nH]cn1)*; Aib = CC(C)(N)C(=O)O

Tests used:
Assay in all cases: cell-based or functional assay
human GLP-1 receptor = human GLP-1 receptor (human, UniProt P43220 24-463)
human GCG receptor = human GCG receptor (human, UniProt P47871 26-477)
human GIP receptor = target: T1, human GIP receptor (human, UniProt P48546 22-466)
T1 sequence (looked up): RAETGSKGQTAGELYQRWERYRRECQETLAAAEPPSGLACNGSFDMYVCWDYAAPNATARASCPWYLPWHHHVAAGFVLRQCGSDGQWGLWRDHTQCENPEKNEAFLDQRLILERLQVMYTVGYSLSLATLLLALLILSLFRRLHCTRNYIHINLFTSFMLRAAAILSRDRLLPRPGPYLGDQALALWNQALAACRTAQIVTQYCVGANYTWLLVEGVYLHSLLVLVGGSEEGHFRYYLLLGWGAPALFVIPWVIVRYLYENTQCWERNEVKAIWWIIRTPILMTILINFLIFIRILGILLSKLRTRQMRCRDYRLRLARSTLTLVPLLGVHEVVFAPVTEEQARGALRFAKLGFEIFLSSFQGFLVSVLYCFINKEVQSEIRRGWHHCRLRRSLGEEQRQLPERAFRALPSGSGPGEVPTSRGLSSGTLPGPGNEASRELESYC

human GCG receptor, sequence (P47871 26-477): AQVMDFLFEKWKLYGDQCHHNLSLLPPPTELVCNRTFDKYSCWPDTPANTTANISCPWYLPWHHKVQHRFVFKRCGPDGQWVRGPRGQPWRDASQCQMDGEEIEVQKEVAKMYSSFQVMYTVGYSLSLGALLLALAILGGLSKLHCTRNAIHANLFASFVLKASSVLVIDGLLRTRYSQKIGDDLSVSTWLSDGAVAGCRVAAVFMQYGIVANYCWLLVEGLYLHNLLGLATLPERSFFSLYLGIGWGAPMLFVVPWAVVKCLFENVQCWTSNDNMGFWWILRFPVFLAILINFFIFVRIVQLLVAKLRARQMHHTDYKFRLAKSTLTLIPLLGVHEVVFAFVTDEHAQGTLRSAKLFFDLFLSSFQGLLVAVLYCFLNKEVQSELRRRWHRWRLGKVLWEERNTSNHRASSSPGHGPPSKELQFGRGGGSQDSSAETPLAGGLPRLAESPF

{Acetyl(2-(4-imidazolyl))}-[Aib]QGTFTSDYSKYLDEKRQKEFVQWLLDTC (bridge 15-19) [triple agonist of SEQ ID NO: 82]
In vitro activity (%) vs. GLP-1, cAMP EC50 (human GLP-1 receptor): 9.5% | In vitro activity (%) vs. Glucagon, cAMP EC50 (human GCG receptor): 1.1% | In vitro activity (%) vs. GIP, cAMP EC50 (human GIP receptor): < 0.1%

H[Aib]QGTFTSDVSKYLDGQAAQEFVAWLLAGGGPSSGAPPPSC [triple agonist of SEQ ID NO: 10]
In vitro activity (%) vs. GLP-1, cAMP EC50 (human GLP-1 receptor): 46% | In vitro activity (%) vs. Glucagon, cAMP EC50 (human GCG receptor): < 0.1% | In vitro activity (%) vs. GIP, cAMP EC50 (human GIP receptor): < 0.1%

{Acetyl(2-(4-imidazolyl))}-[Aib]QGTFTSDYSKYLDEKRQKEFVNWLLAQKC (bridge 15-19) [triple agonist of SEQ ID NO: 93]
In vitro activity (%) vs. GLP-1, cAMP EC50 (human GLP-1 receptor): 5.7% | In vitro activity (%) vs. Glucagon, cAMP EC50 (human GCG receptor): 0.3% | In vitro activity (%) vs. GIP, cAMP EC50 (human GIP receptor): 0.7%

{Acetyl(2-(4-imidazolyl))}-[Aib]QGTFTSDYSIAMDEIHQKDFVNWLLAQKC (bridge 15-19) [triple agonist of SEQ ID NO: 92]
In vitro activity (%) vs. GLP-1, cAMP EC50 (human GLP-1 receptor): 0.8% | In vitro activity (%) vs. Glucagon, cAMP EC50 (human GCG receptor): < 0.1% | In vitro activity (%) vs. GIP, cAMP EC50 (human GIP receptor): 0.4%

Y[Aib]QGTFTSDYSKALDEKAAKDFVNWLLDQHPSSGQPPPSC (bridge 16-20; ends not checked) [triple agonist of SEQ ID NO: 102]
In vitro activity (%) vs. GLP-1, cAMP EC50 (human GLP-1 receptor): 23.3% | In vitro activity (%) vs. Glucagon, cAMP EC50 (human GCG receptor): 29.5% | In vitro activity (%) vs. GIP, cAMP EC50 (human GIP receptor): 58%

[Acetyl(2-(4-imidazolyl))][Aib]EGTFTSDYSIAMDEIHQKDFVNWLLAQC (bridge 16-20) [triple agonist of SEQ ID NO: 83]
In vitro activity (%) vs. GLP-1, cAMP EC50 (human GLP-1 receptor): 47.3% | In vitro activity (%) vs. Glucagon, cAMP EC50 (human GCG receptor): 1.3% | In vitro activity (%) vs. GIP, cAMP EC50 (human GIP receptor): 0.4%

{Acetyl(2-(4-imidazolyl))}-[Aib]QGTFTSDYSIAMDEIHQKDFVNWLLNTC (bridge 15-19) [triple agonist of SEQ ID NO: 87]
In vitro activity (%) vs. GLP-1, cAMP EC50 (human GLP-1 receptor): 0.9% | In vitro activity (%) vs. Glucagon, cAMP EC50 (human GCG receptor): < 0.1% | In vitro activity (%) vs. GIP, cAMP EC50 (human GIP receptor): < 0.1%

Y[Aib]QGTFTSDYSKYLDEKRAKEFVQWLLDHCPSSGQPPPS (bridge 16-20) [triple agonist of SEQ ID NO: 96]
In vitro activity (%) vs. GLP-1, cAMP EC50 (human GLP-1 receptor): 34.4% | In vitro activity (%) vs. Glucagon, cAMP EC50 (human GCG receptor): 195% | In vitro activity (%) vs. GIP, cAMP EC50 (human GIP receptor): 5.2%

Y[Aib]QGTFTSDYSKYLDEKRAKEFVQWLLDCHPSSGQPPPS (bridge 16-20; ends not checked) [triple agonist of SEQ ID NO: 97]
In vitro activity (%) vs. GLP-1, cAMP EC50 (human GLP-1 receptor): 10.5% | In vitro activity (%) vs. Glucagon, cAMP EC50 (human GCG receptor): 62.8% | In vitro activity (%) vs. GIP, cAMP EC50 (human GIP receptor): 2.6%

Y[Aib]QGTFTSDYSKALDEKAAKEFVQWLLDQHPSSGQPPPSC (bridge 16-20) [triple agonist of SEQ ID NO: 100]
In vitro activity (%) vs. GLP-1, cAMP EC50 (human GLP-1 receptor): 42.2% | In vitro activity (%) vs. Glucagon, cAMP EC50 (human GCG receptor): 12.7% | In vitro activity (%) vs. GIP, cAMP EC50 (human GIP receptor): 118%

H[Aib]QGTFTSDVSKYLDGQAAQEFVAWLLAGC [triple agonist of SEQ ID NO: 9]
In vitro activity (%) vs. GLP-1, cAMP EC50 (human GLP-1 receptor): 32.1% | In vitro activity (%) vs. Glucagon, cAMP EC50 (human GCG receptor): 0.13% | In vitro activity (%) vs. GIP, cAMP EC50 (human GIP receptor): < 0.1%

Y[Aib]QGTFTSDYSKYLDEKRAKEFVQWLLCHHPSSGQPPPS (bridge 16-20) [triple agonist of SEQ ID NO: 95]
In vitro activity (%) vs. GLP-1, cAMP EC50 (human GLP-1 receptor): 2.1% | In vitro activity (%) vs. Glucagon, cAMP EC50 (human GCG receptor): 0.4% | In vitro activity (%) vs. GIP, cAMP EC50 (human GIP receptor): < 0.1%

Y[Aib]QGTFTSDYSKALDEKAAKEFVNWLLDQHPSSGQPPPSC (bridge 16-20) [triple agonist of SEQ ID NO: 101]
In vitro activity (%) vs. GLP-1, cAMP EC50 (human GLP-1 receptor): 23.2% | In vitro activity (%) vs. Glucagon, cAMP EC50 (human GCG receptor): 13.9% | In vitro activity (%) vs. GIP, cAMP EC50 (human GIP receptor): 40.1%

{Acetyl(2-(4-imidazolyl))}-[Aib]EGTFTSDYSIAMDEIHQKDFVNWLLAQKC (bridge 15-19) [triple agonist of SEQ ID NO: 90]
In vitro activity (%) vs. GLP-1, cAMP EC50 (human GLP-1 receptor): 7.4% | In vitro activity (%) vs. Glucagon, cAMP EC50 (human GCG receptor): < 0.1% | In vitro activity (%) vs. GIP, cAMP EC50 (human GIP receptor): < 0.1%

{Acetyl(2-(4-imidazolyl))}-[Aib]QGTFTSDYSKYLDEKRQKEFVQWLLNTKC (bridge 15-19) [triple agonist of SEQ ID NO: 88]
In vitro activity (%) vs. GLP-1, cAMP EC50 (human GLP-1 receptor): 9.6% | In vitro activity (%) vs. Glucagon, cAMP EC50 (human GCG receptor): 0.3% | In vitro activity (%) vs. GIP, cAMP EC50 (human GIP receptor): < 0.1%

{Acetyl(2-(4-imidazolyl))}-[Aib]QGTFTSDYSKYLDEKRQKEFVQWLLDTKC (bridge 15-19) [triple agonist of SEQ ID NO: 89]
In vitro activity (%) vs. GLP-1, cAMP EC50 (human GLP-1 receptor): 7.1% | In vitro activity (%) vs. Glucagon, cAMP EC50 (human GCG receptor): 0.7% | In vitro activity (%) vs. GIP, cAMP EC50 (human GIP receptor): < 0.1%

Y[Aib]QGTFTSDYSKALDEKAAKEFVNWLLDHHPSSGQPPPSC (bridge 16-20; ends not checked) [triple agonist of SEQ ID NO: 98]
In vitro activity (%) vs. GLP-1, cAMP EC50 (human GLP-1 receptor): 28.1% | In vitro activity (%) vs. Glucagon, cAMP EC50 (human GCG receptor): 8.2% | In vitro activity (%) vs. GIP, cAMP EC50 (human GIP receptor): 47.1%

{Acetyl(2-(4-imidazolyl))}-[Aib]QGTFTSDYSKYLDEKRQKEFVNWLLAQC (bridge 15-19) [triple agonist of SEQ ID NO: 86]
In vitro activity (%) vs. GLP-1, cAMP EC50 (human GLP-1 receptor): 28.4% | In vitro activity (%) vs. Glucagon, cAMP EC50 (human GCG receptor): 0.4% | In vitro activity (%) vs. GIP, cAMP EC50 (human GIP receptor): 0.2%

Y[Aib]QGTFTSDYSKALDEKAAKDFVNWLLDHHPSSGQPPPSC (bridge 16-20; ends not checked) [triple agonist of SEQ ID NO: 99]
In vitro activity (%) vs. GLP-1, cAMP EC50 (human GLP-1 receptor): 20.9% | In vitro activity (%) vs. Glucagon, cAMP EC50 (human GCG receptor): 14.9% | In vitro activity (%) vs. GIP, cAMP EC50 (human GIP receptor): 57.7%

{Acetyl(2-(4-imidazolyl))}-[Aib]EGTFTSDYSIAMDEIHQKDFVDWLLAEC (bridge 15-19) [triple agonist of SEQ ID NO: 84]
In vitro activity (%) vs. GLP-1, cAMP EC50 (human GLP-1 receptor): 4.2% | In vitro activity (%) vs. Glucagon, cAMP EC50 (human GCG receptor): < 0.1% | In vitro activity (%) vs. GIP, cAMP EC50 (human GIP receptor): < 0.1%

[Acetyl(2-(4-imidazolyl))][Aib]QGTFTSDYSIAMDEIHQKDFVNWLLAQC (bridge 16-20) [triple agonist of SEQ ID NO: 85]
In vitro activity (%) vs. GLP-1, cAMP EC50 (human GLP-1 receptor): 4.3% | In vitro activity (%) vs. Glucagon, cAMP EC50 (human GCG receptor): < 0.1% | In vitro activity (%) vs. GIP, cAMP EC50 (human GIP receptor): 0.3%

{Acetyl(2-(4-imidazolyl))}-[Aib]EGTFTSDYSIAMDEIHQKDFVDWLLAEKC (bridge 15-19) [triple agonist of SEQ ID NO: 91]
In vitro activity (%) vs. GLP-1, cAMP EC50 (human GLP-1 receptor): 31.9% | In vitro activity (%) vs. Glucagon, cAMP EC50 (human GCG receptor): 16.8% | In vitro activity (%) vs. GIP, cAMP EC50 (human GIP receptor): 0.3%

{Acetyl(2-(4-imidazolyl))}-[Aib]QGTFTSDYSIAMDEIHQKDFVNWLLNTKC (bridge 15-19) [triple agonist of SEQ ID NO: 94]
In vitro activity (%) vs. GLP-1, cAMP EC50 (human GLP-1 receptor): 0.5% | In vitro activity (%) vs. Glucagon, cAMP EC50 (human GCG receptor): < 0.1% | In vitro activity (%) vs. GIP, cAMP EC50 (human GIP receptor): < 0.1%
